Laboratory results published in patent US20220349880.

Tests used:
[1] = test system: Peptide H-15: H2N-(CH2)4-CO-Pro-Leu-Ala-Phe-Val-Ala-NH-CH2-Fc
[2] = test system: Peptide H-16: H2N-(CH2)4-CO-Pro-Leu-Ala-Gly-Val-Ala-NH-CH2-Fc
[3] = test system: Peptide H-1: H2N-(CH2)4-CO-Lys-Val-Arg-Phe-Val-Gly-NHCH2-Fc
[4] = test system: Peptide H-2: H2N-(CH2)4-CO-Pro-Thr-Arg-Phe-Val-Gly-NHCH2-Fc
[5] = test system: Peptide H-3: H2N-(CH2)4-CO-Pro-Leu-Arg-Phe-Gly-Ala-NH-CH2-Fc
[6] = test system: Peptide H-4: H2N-(CH2)4-CO-Pro-Val-Gly-Phe-Val-Ala-NHCH2-Fc
[7] = test system: Peptide H-5: H2N-(CH2)4-CO-Ala-Pro-Leu-Arg-Phe-Gly-Ala-Ala-NHCH2-Fc
[8] = test system: Peptide H-6: H2N-(CH2)4-CO-Pro-Leu-Gly-Phe-Val-Ala-NHCH2-Fc
[9] = test system: Peptide H-7: H2N-(CH2)4-CO-Pro-Leu-Gly-Gly-Val-Ala-NHCH2-Fc

recombinant human cathepsin B (rhCB), activated by incubation in 25 mM MES buffer (pH 5.0) containing 5 mM DTT for 15 min
proteolysis rate (electrochemical measurements, fluorogenic assays and HPLC-MS analysis) [1]: three peptides H-3, H-15 and H-16 were selected for this study due to the higher proteolysis rates by cathepsin B compared to other candidates | proteolytic activity among about 30 synthesized peptides [1]: has shown the highest proteolytic activity by cathepsin B | proteolysis rate (electrochemical measurements, fluorogenic assays and HPLC-MS analysis) [2]: three peptides H-3, H-15 and H-16 were selected for this study due to the higher proteolysis rates by cathepsin B compared to other candidates | proteolysis rate (electrochemical measurements, fluorogenic assays and HPLC-MS analysis); one of the 'other candidates' with a lower rate [3]: three peptides H-3, H-15 and H-16 were selected for this study due to the higher proteolysis rates by cathepsin B compared to other candidates | proteolysis rate (electrochemical measurements, fluorogenic assays and HPLC-MS analysis); one of the 'other candidates' with a lower rate [4]: three peptides H-3, H-15 and H-16 were selected for this study due to the higher proteolysis rates by cathepsin B compared to other candidates | proteolysis rate (electrochemical measurements, fluorogenic assays and HPLC-MS analysis) [5]: three peptides H-3, H-15 and H-16 were selected for this study due to the higher proteolysis rates by cathepsin B compared to other candidates | proteolysis rate (electrochemical measurements, fluorogenic assays and HPLC-MS analysis); one of the 'other candidates' with a lower rate [6]: three peptides H-3, H-15 and H-16 were selected for this study due to the higher proteolysis rates by cathepsin B compared to other candidates | proteolysis rate (electrochemical measurements, fluorogenic assays and HPLC-MS analysis); one of the 'other candidates' with a lower rate [7]: three peptides H-3, H-15 and H-16 were selected for this study due to the higher proteolysis rates by cathepsin B compared to other candidates | proteolysis rate (electrochemical measurements, fluorogenic assays and HPLC-MS analysis); one of the 'other candidates' with a lower rate [8]: three peptides H-3, H-15 and H-16 were selected for this study due to the higher proteolysis rates by cathepsin B compared to other candidates | proteolysis rate (electrochemical measurements, fluorogenic assays and HPLC-MS analysis); one of the 'other candidates' with a lower rate [9]: three peptides H-3, H-15 and H-16 were selected for this study due to the higher proteolysis rates by cathepsin B compared to other candidates
